Laboratory results: patent US20250270273A1 (NEKTAR THERAPEUTICS, published 2025)
Changes are numbered by the printed parent chain. In names and notes the source's numbering stands. One block for each molecule: values may come before it.

Key:
[1] = biological target: T1, IFN-γ receptor (IFNGR; IFNGR1 and IFNGR2) on human cells (human) (UniProt P15260); assay: cell-based or functional assay
T1 sequence (looked up) 1: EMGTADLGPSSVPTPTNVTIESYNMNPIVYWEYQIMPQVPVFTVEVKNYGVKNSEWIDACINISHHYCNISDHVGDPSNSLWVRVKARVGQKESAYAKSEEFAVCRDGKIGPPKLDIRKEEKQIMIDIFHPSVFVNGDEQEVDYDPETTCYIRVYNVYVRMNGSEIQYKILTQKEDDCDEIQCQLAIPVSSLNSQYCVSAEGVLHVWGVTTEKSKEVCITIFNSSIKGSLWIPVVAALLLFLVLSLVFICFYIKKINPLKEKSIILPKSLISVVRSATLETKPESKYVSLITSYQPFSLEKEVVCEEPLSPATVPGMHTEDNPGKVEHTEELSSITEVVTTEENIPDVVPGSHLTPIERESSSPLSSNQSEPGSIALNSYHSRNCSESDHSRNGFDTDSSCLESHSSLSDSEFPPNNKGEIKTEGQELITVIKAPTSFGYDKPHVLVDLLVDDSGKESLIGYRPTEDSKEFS
T1 sequence (looked up) 2: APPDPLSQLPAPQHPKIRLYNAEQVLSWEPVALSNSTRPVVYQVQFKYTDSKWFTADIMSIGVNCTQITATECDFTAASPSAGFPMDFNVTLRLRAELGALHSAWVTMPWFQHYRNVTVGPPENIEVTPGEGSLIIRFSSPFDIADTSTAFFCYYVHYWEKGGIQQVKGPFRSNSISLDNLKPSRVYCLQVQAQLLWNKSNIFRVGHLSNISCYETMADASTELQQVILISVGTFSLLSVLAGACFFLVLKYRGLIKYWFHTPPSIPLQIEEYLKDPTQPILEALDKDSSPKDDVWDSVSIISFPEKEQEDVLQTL

[2] = biological target: T2, IFN-γ receptor (IFNGR; IFNGR1 and IFNGR2) on human cells (human, UniProt P15260 18-489; P38484 22-337); assay: cell-based or functional assay
T2 sequence (looked up) 1: T1 sequence (looked up) 1
T2 sequence (looked up) 2: T1 sequence (looked up) 2

[3] = biological target: T2, IFN-γ receptor (IFNGR; IFNGR1 and …); assay: cell-based or functional assay; remark: listed apart in the source
[4] = biological target: T3, IFNγR1 fused to the constant region of the antibody IgG1 (UniProt P15260 18-245, limits assumed); assay: SPR (Biacore, CM5 chip), IFNγR1-IgG1 Fc captured by anti-human IgG, analyte injected
T3 construct: also called IFNGR1; Interferon gamma receptor 1 fused to the Fc region; not shown: constant region (Fc) of IgG1, captured on the chip by an anti-human IgG antibody
T3 sequence (looked up): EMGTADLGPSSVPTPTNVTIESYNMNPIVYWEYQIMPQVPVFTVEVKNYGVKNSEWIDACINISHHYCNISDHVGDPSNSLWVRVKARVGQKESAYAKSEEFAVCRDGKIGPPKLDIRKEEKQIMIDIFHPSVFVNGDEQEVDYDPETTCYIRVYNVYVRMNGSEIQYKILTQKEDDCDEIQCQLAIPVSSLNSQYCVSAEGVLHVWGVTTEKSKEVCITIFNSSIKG
Method: Briefly, the surface of a BAcore™ CM5 sensor chip was coated with anti-human IgG antibody comprising IFNγR1 fused to the constant region of the antibody IgG₁.
Each of the IFN-γ-b protein, the M135C, S98C, and S66C cysteine muteins, and Compounds 1, 2, and 3 were separately injected onto the sensor chip which was coated with IFNγR1. The affinities were measured by determining the kinetic on-rate (kₒₙ) and the kinetic off-rate (koff) rates separately, and the ratio between kₒₙ and koff was used to calculate the Kd values with the results shown in Table 9.

[5] = biological target: T3, IFNγR1 fused to the constant region of …; assay: SPR (Biacore, CM5 chip), IFNγR1-IgG1 Fc captured by anti-human IgG

Molecule: Compound 4, mono-mPEG2-MAL-40K-rhIFN-γ-1b-M135C (from UniProt P01579 24-162) (ligand)
EC50 (ng/mL)-% pSTAT1, CD14+CD16+ (Intermediate) monocytes of human PBMCs [1]: 10.1 ng/mL
EC50 (ng/mL)-% pSTAT1, CD14+CD16- (Classical) monocytes of human PBMCs [1]: 32.6 ng/mL
EC50 (ng/mL)-% pSTAT1, CD14loCD16hi (Non-classical) monocytes of human PBMCs [1]: 11.7 ng/mL
EC50 (ng/mL)-MFI of pSTAT1, Classical monocytes of human PBMCs [1]: 152 ng/mL
EC50 (ng/mL)-MFI of pSTAT1, Intermediate monocytes of human PBMCs [1]: 84.2 ng/mL
EC50 (ng/mL)-MFI of pSTAT1, Non-classical monocytes of human PBMCs [1]: 97.5 ng/mL
EC50 in HT-29 cells, MHCI [1]: 0.3 ng/mL
EC50 in HT-29 cells, MHCII [1]: 3.1 ng/mL
EC50 in HT-29 cells, PD-L1 [1]: 3.6 ng/mL
EC50 in HT-29 cells, pSTAT1 [1]: 180 ng/mL

B1: rhIFN-γ-1b (wild-type recombinant human interferon-γ-1b) (ligand)
chain: MQDPYVKEAENLKKYFNAGHSDVADNGTLFLGILKNWKEESDRKIMQSQIVSFYFKLFKNFKDDQSIQKSVETIKEDMNVKFFNSNKKKRDDFEKLTNYSVTDLNVQRKAIHELIQVMAELSPAAKTGKRKRSQMLFRGR
notes: also called wt (rhIFN-γ-1b); WT IFN-γ-1b (Actimmune)
EC50 (ng/mL)-% pSTAT1, CD14+CD16+ (Intermediate) monocytes of human PBMCs [2]: 0.015 ng/mL
EC50 (ng/mL)-% pSTAT1, CD14+CD16- (Classical) monocytes of human PBMCs [2]: 0.035 ng/mL
EC50 (ng/mL)-% pSTAT1, CD14loCD16hi (Non-classical) monocytes of human PBMCs [2]: 0.018 ng/mL
EC50 (ng/mL)-MFI of pSTAT1, Classical monocytes of human PBMCs [2]: 0.3 ng/mL
EC50 (ng/mL)-MFI of pSTAT1, Intermediate monocytes of human PBMCs [2]: 0.24 ng/mL
EC50 (ng/mL)-MFI of pSTAT1, Non-classical monocytes of human PBMCs [2]: 0.26 ng/mL
EC50 in HT-29 cells, MHCI [3]: 0.079 ng/mL
EC50 in HT-29 cells, MHCII [3]: 0.53 ng/mL
EC50 in HT-29 cells, PD-L1 [3]: 0.69 ng/mL
EC50 in HT-29 cells, pSTAT1 [3]: 1 ng/mL
Kd [4]: 0.0655 nM
koff [4]: 0.000701 s⁻¹
kon [4]: 1.07e+07 M⁻¹ s⁻¹

B2: Compound 1, mono-mPEG-MAL-10K-rhIFN-γ-1b-M135C (ligand)
chain: B1 chain with M135C
modifications: Cys135 thioether-linked to linear mPEG-maleimide of about 10,000 daltons (mPEG-MAL-10K), succinimide ring closed
notes: also called mPEG-MAL-10K-M135C-IFN-γ; M135C 10K linear
fold decrease in affinity against IFN-γ-M135C [5]: ~10 fold
EC50 (ng/mL)-% pSTAT1, CD14+CD16+ (Intermediate) monocytes of human PBMCs [2]: 0.084 ng/mL
EC50 (ng/mL)-% pSTAT1, CD14+CD16- (Classical) monocytes of human PBMCs [2]: 0.222 ng/mL
EC50 (ng/mL)-% pSTAT1, CD14loCD16hi (Non-classical) monocytes of human PBMCs [2]: 0.106 ng/mL
EC50 (ng/mL)-MFI of pSTAT1, Classical monocytes of human PBMCs [2]: 2.16 ng/mL
EC50 (ng/mL)-MFI of pSTAT1, Intermediate monocytes of human PBMCs [2]: 0.85 ng/mL
EC50 (ng/mL)-MFI of pSTAT1, Non-classical monocytes of human PBMCs [2]: 0.99 ng/mL
EC50 in HT-29 cells, MHCI [3]: 0.099 ng/mL
EC50 in HT-29 cells, MHCII [3]: 0.83 ng/mL
EC50 in HT-29 cells, PD-L1 [3]: 1.1 ng/mL
EC50 in HT-29 cells, pSTAT1 [3]: 11 ng/mL
Kd [4]: 1.42 nM
koff [4]: 0.00221 s⁻¹
kon [4]: 1.61e+06 M⁻¹ s⁻¹

B3: rhIFN-γ-1b-N98C cysteine mutein (ligand)
chain: B1 chain with N98C
EC50 in HT-29 cells, pSTAT1 [3]: 1.7 ng/mL

B4: Compound 2, mono-mPEG-MAL-20K-rhIFN-γ-1b-M135C (ligand)
chain: B1 chain with M135C
modifications: Cys135 thioether-linked to linear mPEG-maleimide of about 20,000 daltons (mPEG-MAL-20K), succinimide ring closed
notes: also called mPEG-MAL-20K-M135C-IFN-γ; M135C 20K linear
EC50 (ng/mL)-% pSTAT1, CD14+CD16+ (Intermediate) monocytes of human PBMCs [2]: 0.179 ng/mL
EC50 (ng/mL)-% pSTAT1, CD14+CD16- (Classical) monocytes of human PBMCs [2]: 1.45 ng/mL
EC50 (ng/mL)-% pSTAT1, CD14loCD16hi (Non-classical) monocytes of human PBMCs [2]: 0.367 ng/mL
EC50 (ng/mL)-MFI of pSTAT1, Classical monocytes of human PBMCs [2]: 7.62 ng/mL
EC50 (ng/mL)-MFI of pSTAT1, Intermediate monocytes of human PBMCs [2]: 4.28 ng/mL
EC50 (ng/mL)-MFI of pSTAT1, Non-classical monocytes of human PBMCs [2]: 4.57 ng/mL
EC50 in HT-29 cells, MHCI [3]: 0.076 ng/mL
EC50 in HT-29 cells, MHCII [3]: 0.7 ng/mL
EC50 in HT-29 cells, PD-L1 [3]: 1.2 ng/mL
EC50 in HT-29 cells, pSTAT1 [3]: 14 ng/mL
Kd [4]: 1.88 nM
koff [4]: 0.00106 s⁻¹
kon [4]: 637000 M⁻¹ s⁻¹

B6: rhIFN-γ-1b-S66C cysteine mutein (ligand)
chain: B1 chain with S66C
notes: also called IFN-γ-S66C; hIFN-γ S66C
EC50 in HT-29 cells, pSTAT1 [3]: 1.5 ng/mL
Kd [4]: 0.534 nM
koff [4]: 0.00137 s⁻¹
kon [4]: 2.57e+06 M⁻¹ s⁻¹

B7: rhIFN-γ-1b-M135C cysteine mutein (ligand)
chain: B1 chain with M135C
notes: also called IFN-γ-M135C; hIFN-γ M135C
EC50 in HT-29 cells, pSTAT1 [3]: 1.4 ng/mL
Kd [4]: 0.123 nM

Second part, the molecule after the results:

EC50 in HT-29 cells, MHCI [1]: 0.023 ng/mL
EC50 in HT-29 cells, MHCII [1]: 0.27 ng/mL
EC50 in HT-29 cells, PD-L1 [1]: 0.37 ng/mL
EC50 in HT-29 cells, pSTAT1 [1]: 1.3 ng/mL
Molecule: Compound 5, mono-mPEG2-MAL-20K-rhIFN-γ-1b-S66C (from UniProt P01579 24-162) (ligand)

EC50 in HT-29 cells, MHCI (Compound 7 (1)) [1]: 5.3 ng/mL
EC50 in HT-29 cells, MHCII (Compound 7 (1)) [1]: 150 ng/mL
EC50 in HT-29 cells, PD-L1 (Compound 7 (1)) [1]: 190 ng/mL
EC50 in HT-29 cells, pSTAT1 (Compound 7 (2)) [1]: 969 ng/mL
Molecule: Compound 7, ring-opened mono-mPEG2-MAL-20K-rhIFN-γ-1b-M135C (from UniProt P01579 24-162) (ligand)

EC50 in HT-29 cells, MHCI [1]: 0.047 ng/mL
EC50 in HT-29 cells, MHCII [1]: 0.86 ng/mL
EC50 in HT-29 cells, PD-L1 [1]: 1.3 ng/mL
EC50 in HT-29 cells, pSTAT1 [1]: 1.2 ng/mL
Molecule: Compound 6, mono-mPEG2-MAL-20K-rhIFN-γ-1b-N98C (from UniProt P01579 24-162) (ligand)

EC50 (ng/mL)-% pSTAT1, CD14+CD16+ (Intermediate) monocytes of human PBMCs [2]: 4.38 ng/mL
EC50 (ng/mL)-% pSTAT1, CD14+CD16- (Classical) monocytes of human PBMCs [2]: 14 ng/mL
EC50 (ng/mL)-% pSTAT1, CD14loCD16hi (Non-classical) monocytes of human PBMCs [2]: 4.84 ng/mL
EC50 (ng/mL)-MFI of pSTAT1, Classical monocytes of human PBMCs [2]: 64.2 ng/mL
EC50 (ng/mL)-MFI of pSTAT1, Intermediate monocytes of human PBMCs [2]: 32.7 ng/mL
EC50 (ng/mL)-MFI of pSTAT1, Non-classical monocytes of human PBMCs [2]: 35 ng/mL
EC50 in HT-29 cells, MHCI [3]: 0.17 ng/mL
EC50 in HT-29 cells, MHCII [3]: 1.8 ng/mL
EC50 in HT-29 cells, PD-L1 [3]: 2.2 ng/mL
EC50 in HT-29 cells, pSTAT1 [3]: 89 ng/mL
Kd [4]: 4.9 nM
koff [4]: 0.00157 s⁻¹
kon [4]: 321000 M⁻¹ s⁻¹
B5: Compound 3, mono-mPEG2-ru-MAL-20K-rhIFN-γ-1b-M135C (ring closed) (ligand)
chain: B1 chain with M135C
modifications: Cys135 thioether-linked to branched mPEG2-maleimide of about 20,000 daltons (mPEG2-MAL-20K), succinimide ring closed
notes: also called mPEG2-MAL-20K-M135C-IFN-γ; M135C 20K branched (RC)
